We go through three molecules from patent US20250129143A1 (TOKYO METROPOLITAN INSTITUTE OF MEDICAL SCIENCE, published 2025).

By Kd is commonly meant the constant that tells how readily two partners part at equilibrium. High values mean a looser complex, low ones a tighter complex.

In experiment [1] the target is T1, biotinylated ubiquitin (human-derived ubiquitin with C-terminal Cys residue and 6xHis tag, biotin on the Cys) (human, UniProt P0CG48 1-76, biotin tag (EZ-Link Maleimide-PEG11-Biotin) on the added C-terminal Cys residue).
T1 construct: mature; Construct pET21a-hUb-Cys-His6; also called hUb-Cys-His6; biotin-labeled ubiquitin monomer
Nature of the experiment: BLI; biotinylated ubiquitin on streptavidin sensor, Monobody-Nus-His6 as analyte. In general terms: In BLI a coated tip is dipped into the sample, and binding shifts an interference pattern.

The target of another experiment is T2, M1 (human).
T2 construct: quantified through the peptide GGM[Oxid]QIFVK; also called M1 chain; M1-linked ubiquitin chain
Put plainly: immunoprecipitation from HCT-116 cell extract; quantitative mass spectrometry; pie chart [panel B]. The source says: (§1) FIG. 7 is a view showing the results of quantitative mass spectrometry analysis of immunoprecipitates. […] The immunoprecipitates subjected to FIG. 5C were electrophoresed, and high molecular weight regions (62 kDa or more) were subjected to quantitative mass spectrometry analysis. A stable isotope-labeled ubiquitin-derived peptide (name: EST) as an internal standard and 8 types of ubiquitin chain-derived peptides (names: K6, K11, K27, K29, K33, K48, K63, and M1) were used, and the quantification values (fmol) were described. Since the EST peptide sequence overlaps with the K63 chain peptide sequence, the total ubiquitin value was calculated by adding the value of the K63 chain-derived peptide to the quantitative value of the EST peptide. The total amount of ubiquitin contained in the ubiquitin monobody immunoprecipitates was confirmed to be higher than that of FK2 or P4D1. […] The value of the control is subtracted from the value of each antibody, a total value of the 8 types of ubiquitin chain-derived peptides is set at 100%, and the percentage of each ubiquitin chain is shown as a pie chart.
(§2) The above-described immunoprecipitate was electrophoresed on 4%-12% NuPAGE Bis-Tris gels (Thermo Fisher Scientific) in MES buffer (Thermo Fisher Scientific) for about 2 cm, and was then stained with CBB (Bio-Safe Commassie, Bio-Rad). After the gel was washed with Milli-Q water, a gel of 62 kDa or more was cut out using a molecular weight marker as an indicator, and the gel was cut into 1 mm squares. The gel pieces were collected in an Eppendorf tube and were washed with 50 mM ammonium bicarbonate and 30% acetonitrile (ACN) for 2 hours, and then with 50 mM ammonium bicarbonate and 50% ACN for 1 hour, and were dehydrated in 100% ACN for 15 minutes. Subsequently, a trypsin solution (20 ng/ml Trypsin Gold, Promega, 50 mM ammonium bicarbonate, and 5% ACN) was added to the resultant, which was then digested at 37° C. overnight.

The next experiment deals with T3, K6 (human).
T3 construct: quantified through the peptide M[Oxid]QIFVK[di-GlyGly]TLTGK; also called K6 chain; K6-linked ubiquitin chain
The description is as above.
Description: as §1, §2

For another experiment, the target named is T4, K11 (human).
T4 construct: also called K11 chain; K11-linked ubiquitin chain
The description is as above.
Description: as §1, §2

For the next experiment, the target named is T5, K27 (human).
T5 construct: also called K27 chain; K27-linked ubiquitin chain
The description is as above.
Description: as §1, §2

The next experiment addresses T6, K29 (human).
T6 construct: quantified through the peptide AK[di-GlyGly]IQDK; also called K29 chain; K29-linked ubiquitin chain
Described as above.
Description: as §1, §2

A further experiment addresses T7, K33 (human).
T7 construct: also called K33 chain; K33-linked ubiquitin chain
Described as above.
Description: as §1, §2

A further experiment has as its target T8, K48 (human).
T8 construct: quantified through the peptide LIFAGK[di-GlyGly]QLEDGR; also called K48 chain; K48-linked ubiquitin chain
Described as above.
Description: as §1, §2

In a further experiment the target is T9, K63 (human).
T9 construct: also called K63 chain; K63-linked ubiquitin chain
The experiment is described as above.
Description: as §1, §2

B1: anti-ubiquitin monobody clone E, Monobody-Nus tag-His6 recombinant protein (designed binder)
chain: LEVVEASPTSIQISWDANIYSVGQGEYVRYYRITYGETGGNSPVQEFTVPGSKSTATISGLKPGVDYTITVYAVTEYSYMYWGWPPISINYRTHHHHHH
notes: Monobody, Nus tag and His6 fused from the N-terminus; also called Ub monobody; not shown: Nus tag for solubilization
B1 came in with a Kd in [1] of 1.2 nM.

B2: anti-ubiquitin monobody clone A, Monobody-Nus tag-His6 recombinant protein (designed binder)
chain: LEVVEASPTSIQISWDAYPYYIIGETVRYYRITYGETGGNSPVQEFTVPGSKSTATISGLKPGVDYTITVYAVTYYGNAFWGWPPISINYRTHHHHHH
notes: Fibronectin type III monobody fused from the N-terminus to Nus tag and His6, made in E. coli; also called Ub monobody; not shown: Nus tag for solubilization
In [1], B2 registered an equilibrium dissociation constant (Kd) of 1.1 nM.

B3: Halo tag-fused anti-ubiquitin monobody (His6-Halo tag-TEV recognition sequence-GGGS-monobody, clone C) (designed binder)
chain: HHHHHHGGGSLEVVEASPTSIQISWDAASFGFTHMDKVRYYRITYGETGGNSPVQEFTVPGSKSTATISGLKPGVDYTITVYAVTWYAYSYWGWPPISINYRT
notes: Immobilized on Magne HaloTag Beads; also called Ub monobody; Halo tag-fused monobody; not shown: Halo tag
Take B3: the “percentage of this chain among the 8 ubiquitin chain-derived peptides in the immunoprecipitate (control subtracted)” value is 0% with M1; 4% in the experiment with K6; 6% with K11; 0% in the experiment with K27; 10% in the experiment with K29; 0% in the experiment with K33. For the same molecule, the “percentage of this chain among the 8 ubiquitin chain-derived peptides in the immunoprecipitate (control subtracted)” value with K48 came to 61%; with K63, 19%.
